{
  "source": "patent US20090214547A1",
  "about": "(published 2009)",
  "binders": {"B1": {"name": "26-5F12.1 (antibody, V domains shown)", "VH": "VKLQESGAEVKKPGASVKVSCTASGYIFTSYAIHWVRQAPGQRLEWMGWINAGYGNTKYSQKFQGRVSITRDKSASTAYMELSSLRSEDTAVYYCARRGQQLAFDYWGQGTTVTVSS", "VL": "not shown", "notes": "also called PdB26-5F12.1"}},
  "molecular_target": "T1, Pneumolysin, 57 kDa (full length w/His-tag) (Streptococcus pneumoniae, UniProt Q04IN8 2-471)",
  "T1 construct": "also called Antigen; PLY",
  "T1 sequence (Q04IN8 2-471)": "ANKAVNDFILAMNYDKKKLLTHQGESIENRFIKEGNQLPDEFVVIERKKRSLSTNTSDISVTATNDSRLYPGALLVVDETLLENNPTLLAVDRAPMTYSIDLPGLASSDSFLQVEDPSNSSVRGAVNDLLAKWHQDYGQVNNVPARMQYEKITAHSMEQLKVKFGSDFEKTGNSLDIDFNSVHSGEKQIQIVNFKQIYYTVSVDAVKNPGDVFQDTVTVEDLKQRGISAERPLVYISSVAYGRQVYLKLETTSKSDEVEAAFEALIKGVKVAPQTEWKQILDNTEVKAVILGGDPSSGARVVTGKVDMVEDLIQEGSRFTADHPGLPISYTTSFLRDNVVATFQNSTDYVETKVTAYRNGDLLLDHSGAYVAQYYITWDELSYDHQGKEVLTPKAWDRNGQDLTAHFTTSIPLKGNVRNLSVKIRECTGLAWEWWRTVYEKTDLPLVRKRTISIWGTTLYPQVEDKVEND",
  "experiment": "SPR, Mab captured on Protein-G chip",
  "data": [
    {"binder": "B1", "values": [
      {"measurement": "Kd", "result": 0.82, "unit": "nM"},
      {"measurement": "koff", "result": 0.00043, "unit": "s⁻¹"},
      {"measurement": "kon", "result": 530000, "unit": "M⁻¹ s⁻¹"}
    ]}
  ]
}
